The values below come from patent US20130184211A1 (NEW YORK UNIVERSITY, published 2013).

In this test the target is T1, 1:1 binary complex of the ectodomains of FGFR1c and Klotho (human; murine, UniProt O35082 35-982).
T1 construct: range 35-982; also called FGFR1c-Klotho complex; binary FGFR1c-Klotho complex; not shown: C-terminal FLAG tag
T1 sequence 1: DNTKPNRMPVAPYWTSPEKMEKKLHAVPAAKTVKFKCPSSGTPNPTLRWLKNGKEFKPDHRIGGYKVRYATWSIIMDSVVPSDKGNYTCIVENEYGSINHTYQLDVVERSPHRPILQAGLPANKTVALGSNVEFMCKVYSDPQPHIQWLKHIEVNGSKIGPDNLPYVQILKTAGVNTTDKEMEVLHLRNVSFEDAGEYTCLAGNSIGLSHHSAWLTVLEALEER
T1 sequence 2: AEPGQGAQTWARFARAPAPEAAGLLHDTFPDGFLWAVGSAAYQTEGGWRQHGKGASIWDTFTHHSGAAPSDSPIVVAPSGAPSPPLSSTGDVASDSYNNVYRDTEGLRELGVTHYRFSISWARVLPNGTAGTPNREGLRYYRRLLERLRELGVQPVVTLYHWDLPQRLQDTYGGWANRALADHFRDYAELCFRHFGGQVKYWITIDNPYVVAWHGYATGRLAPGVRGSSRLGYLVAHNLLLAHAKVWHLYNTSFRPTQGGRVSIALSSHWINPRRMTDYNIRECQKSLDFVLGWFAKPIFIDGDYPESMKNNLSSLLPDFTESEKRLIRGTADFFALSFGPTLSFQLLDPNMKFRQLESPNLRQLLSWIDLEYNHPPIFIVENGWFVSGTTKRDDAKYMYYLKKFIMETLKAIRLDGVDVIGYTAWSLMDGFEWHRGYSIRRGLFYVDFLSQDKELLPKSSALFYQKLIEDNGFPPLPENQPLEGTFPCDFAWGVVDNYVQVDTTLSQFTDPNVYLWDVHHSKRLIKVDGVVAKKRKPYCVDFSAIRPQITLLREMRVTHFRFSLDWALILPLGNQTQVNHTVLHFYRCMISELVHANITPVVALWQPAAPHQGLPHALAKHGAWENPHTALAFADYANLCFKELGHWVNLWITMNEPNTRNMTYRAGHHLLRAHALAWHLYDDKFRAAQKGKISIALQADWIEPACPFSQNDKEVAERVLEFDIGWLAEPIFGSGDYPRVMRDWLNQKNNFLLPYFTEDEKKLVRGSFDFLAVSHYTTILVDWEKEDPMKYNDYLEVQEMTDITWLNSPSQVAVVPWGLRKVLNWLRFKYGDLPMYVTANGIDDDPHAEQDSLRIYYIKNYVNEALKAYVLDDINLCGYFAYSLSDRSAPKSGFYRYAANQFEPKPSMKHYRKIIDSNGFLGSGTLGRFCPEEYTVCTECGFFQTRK
The experiment in a line: SPR competition; FGF23^28-251 immobilized; reference FGF23^28-251 in solution. The text has this: To analyze FGF23 binding to the binary FGFR1c-Klotho complex, FGF23²⁸⁻²⁵¹ was coupled to a chip, and increasing concentrations of 1:1 complex of the ectodomains of FGFR1c and Klotho in HBS-EP buffer were passed over the chip. To measure binding of the C-terminal tail of FGF23 to the binary FGFR1c-Klotho complex, FGF23¹⁸⁰⁻²⁵¹ was immobilized on a chip, and increasing concentrations of 1:1 complex of the ectodomains of FGFR1c and Klotho in HBS-EP buffer were passed over the chip. To examine whether the C-terminal tail of FGF23 can compete with full-length FGF23 for binding to the binary FGFR1c-Klotho complex, FGF23²⁸⁻²⁵¹ was immobilized on a chip. Increasing concentrations of FGF23¹⁸⁰⁻²⁵¹ were mixed with a fixed concentration of 1:1 complex of the ectodomains of FGFR1c and Klotho in HBS-EP buffer, and the mixtures were passed over the chip. As a control, competition of FGF23 in solution with immobilized FGF23 for binding to the binary FGFR1c-Klotho complex was studied. Increasing concentrations of FGF23²⁸⁻²⁵¹ were mixed with a fixed concentration of 1:1 complex of the ectodomains of FGFR1c and Klotho in HBS-EP buffer, and the mixtures were passed over the FGF23 chip. […] As a control, competition of FGF23 C-terminal tail peptide in solution with immobilized FGF23 C-terminal tail peptide for binding to the binary FGFR1c-Klotho complex was analyzed. […]

B1: N-terminally hexahistidine-tagged 72-amino acid C-terminal tail of human FGF23 (S180 to I251), FGF23^180-251 (peptide)
peptide: SAEDDSERDPLNVLKPRARMTPAPASCSQELPSAEDNSPMASDPLGVVRGGRVNTHAGGTGPEGCRPFAKFI
notes: Expressed in E. coli; also called FGF23 C-terminal tail peptide; C-terminal tail of FGF23; not shown: N-terminal hexahistidine tag (six His)
With B1, the “rightward shift of the dose-response curve compared to full-length FGF23” value is ~3 fold.

B2: FGF23 C-terminal region peptide (S180 to S205), FGF23^180-205 (peptide)
peptide: SAEDDSERDPLNVLKPRARMTPAPAS
notes: Made by solid phase synthesis (GenScript)
In the case of B2, the “rightward shift of the dose-response curve compared to full-length FGF23” value is ~6 fold.
